Test results from patent US20240299459A1.

Experiments:
[1] = molecular target: integrin β1 on human synovium-derived stem cells (human) (UniProt P05556); test: flow cytometry staining of human synovium-derived stem cells, first lot listed (ST1414)
[2] = molecular target: integrin β1 on human synovium-derived stem cells (human) (UniProt P05556); test: flow cytometry staining of human synovium-derived stem cells, third lot listed (ST1434)
[3] = molecular target: integrin β1 on human synovium-derived stem cells (human) (UniProt P05556); test: flow cytometry staining of human synovium-derived stem cells, fourth lot listed (ST1462)
[4] = molecular target: integrin β1 on human synovium-derived stem cells (human) (UniProt P05556); test: flow cytometry staining of human synovium-derived stem cells, second lot listed (ST1420)
[5] = molecular target: platelet-derived growth factor receptor β on rat synovium-derived mesenchymal stem cells (rat) (UniProt Q05030); test: cell-based or functional assay
[6] = molecular target: platelet-derived growth factor receptor β on rat synovium-derived mesenchymal stem cells (rat) (UniProt Q05030); test: flow cytometry staining of rat synovium-derived MSC with FITC anti-goat secondary, TrypLE detachment 30 minutes
[7] = molecular target: platelet-derived growth factor receptor β on human synovium-derived stem cells (human) (UniProt P09619); test: flow cytometry staining of human synovium-derived stem cells, first lot listed (ST1414)
[8] = molecular target: platelet-derived growth factor receptor β on rat synovium-derived mesenchymal stem cells (rat) (UniProt Q05030); test: flow cytometry staining of rat synovium-derived MSC with FITC anti-goat secondary, TrypLE detachment 60 minutes
[9] = molecular target: platelet-derived growth factor receptor β on human synovium-derived stem cells (human) (UniProt P09619); test: flow cytometry staining of human synovium-derived stem cells, third lot listed (ST1434)
[10] = molecular target: platelet-derived growth factor receptor β on rat synovium-derived mesenchymal stem cells (rat) (UniProt Q05030); test: flow cytometry staining of rat synovium-derived MSC with FITC anti-goat secondary, TrypLE detachment 5 minutes
[11] = molecular target: platelet-derived growth factor receptor β on rat synovium-derived mesenchymal stem cells (rat) (UniProt Q05030); test: flow cytometry staining of rat synovium-derived MSC with FITC anti-goat secondary, TrypLE detachment 120 minutes
[12] = molecular target: platelet-derived growth factor receptor β on human synovium-derived stem cells (human) (UniProt P09619); test: flow cytometry staining of human synovium-derived stem cells, fourth lot listed (ST1462)
[13] = molecular target: platelet-derived growth factor receptor β on human synovium-derived stem cells (human) (UniProt P09619); test: flow cytometry staining of human synovium-derived stem cells, second lot listed (ST1420)
[14] = molecular target: integrin β1 on rat synovium-derived mesenchymal stem cells (rat) (UniProt P49134); test: flow cytometry staining of rat synovium-derived MSC, TrypLE detachment 5 minutes
[15] = molecular target: integrin β1 on rat synovium-derived mesenchymal stem cells (rat) (UniProt P49134); test: flow cytometry staining of rat synovium-derived MSC, TrypLE detachment 120 minutes
[16] = molecular target: integrin β1 on rat synovium-derived mesenchymal stem cells (rat) (UniProt P49134); test: flow cytometry staining of rat synovium-derived MSC, TrypLE detachment 30 minutes
[17] = molecular target: integrin β1 on rat synovium-derived mesenchymal stem cells (rat) (UniProt P49134); test: flow cytometry staining of rat synovium-derived MSC cultured 8 days, TrypLE detachment 120 minutes
[18] = molecular target: integrin β1 on rat synovium-derived mesenchymal stem cells (rat) (UniProt P49134); test: flow cytometry staining of rat synovium-derived MSC cultured 21 days, TrypLE detachment 120 minutes
[19] = molecular target: integrin β1 on rat synovium-derived mesenchymal stem cells (rat) (UniProt P49134); test: flow cytometry staining of rat synovium-derived MSC, TrypLE detachment 60 minutes
[20] = molecular target: integrin β1 on rat synovium-derived mesenchymal stem cells (rat) (UniProt P49134); test: flow cytometry staining of rat synovium-derived MSC cultured 28 days, TrypLE detachment 120 minutes

UniProt P05556, sequence (P05556 21-798): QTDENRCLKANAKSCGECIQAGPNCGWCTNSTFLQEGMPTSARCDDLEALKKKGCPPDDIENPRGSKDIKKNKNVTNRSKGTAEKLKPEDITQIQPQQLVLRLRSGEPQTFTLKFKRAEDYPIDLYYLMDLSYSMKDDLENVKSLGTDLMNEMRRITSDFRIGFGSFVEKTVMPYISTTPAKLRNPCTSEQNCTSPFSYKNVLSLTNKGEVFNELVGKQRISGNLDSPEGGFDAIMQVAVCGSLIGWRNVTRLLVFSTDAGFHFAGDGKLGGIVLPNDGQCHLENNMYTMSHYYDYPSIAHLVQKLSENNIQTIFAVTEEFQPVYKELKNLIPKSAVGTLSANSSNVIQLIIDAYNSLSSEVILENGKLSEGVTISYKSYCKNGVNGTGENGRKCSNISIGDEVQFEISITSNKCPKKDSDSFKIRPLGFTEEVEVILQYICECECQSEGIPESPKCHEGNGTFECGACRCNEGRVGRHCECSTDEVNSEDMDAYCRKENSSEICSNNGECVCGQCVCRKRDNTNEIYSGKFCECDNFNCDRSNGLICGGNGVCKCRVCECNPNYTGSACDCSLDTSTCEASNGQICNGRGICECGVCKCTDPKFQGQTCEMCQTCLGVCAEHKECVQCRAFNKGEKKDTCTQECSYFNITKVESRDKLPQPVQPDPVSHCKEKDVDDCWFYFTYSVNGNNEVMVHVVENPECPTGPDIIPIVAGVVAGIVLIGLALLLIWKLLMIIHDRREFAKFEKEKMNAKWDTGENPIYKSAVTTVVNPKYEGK
UniProt Q05030, sequence (Q05030 32-1097): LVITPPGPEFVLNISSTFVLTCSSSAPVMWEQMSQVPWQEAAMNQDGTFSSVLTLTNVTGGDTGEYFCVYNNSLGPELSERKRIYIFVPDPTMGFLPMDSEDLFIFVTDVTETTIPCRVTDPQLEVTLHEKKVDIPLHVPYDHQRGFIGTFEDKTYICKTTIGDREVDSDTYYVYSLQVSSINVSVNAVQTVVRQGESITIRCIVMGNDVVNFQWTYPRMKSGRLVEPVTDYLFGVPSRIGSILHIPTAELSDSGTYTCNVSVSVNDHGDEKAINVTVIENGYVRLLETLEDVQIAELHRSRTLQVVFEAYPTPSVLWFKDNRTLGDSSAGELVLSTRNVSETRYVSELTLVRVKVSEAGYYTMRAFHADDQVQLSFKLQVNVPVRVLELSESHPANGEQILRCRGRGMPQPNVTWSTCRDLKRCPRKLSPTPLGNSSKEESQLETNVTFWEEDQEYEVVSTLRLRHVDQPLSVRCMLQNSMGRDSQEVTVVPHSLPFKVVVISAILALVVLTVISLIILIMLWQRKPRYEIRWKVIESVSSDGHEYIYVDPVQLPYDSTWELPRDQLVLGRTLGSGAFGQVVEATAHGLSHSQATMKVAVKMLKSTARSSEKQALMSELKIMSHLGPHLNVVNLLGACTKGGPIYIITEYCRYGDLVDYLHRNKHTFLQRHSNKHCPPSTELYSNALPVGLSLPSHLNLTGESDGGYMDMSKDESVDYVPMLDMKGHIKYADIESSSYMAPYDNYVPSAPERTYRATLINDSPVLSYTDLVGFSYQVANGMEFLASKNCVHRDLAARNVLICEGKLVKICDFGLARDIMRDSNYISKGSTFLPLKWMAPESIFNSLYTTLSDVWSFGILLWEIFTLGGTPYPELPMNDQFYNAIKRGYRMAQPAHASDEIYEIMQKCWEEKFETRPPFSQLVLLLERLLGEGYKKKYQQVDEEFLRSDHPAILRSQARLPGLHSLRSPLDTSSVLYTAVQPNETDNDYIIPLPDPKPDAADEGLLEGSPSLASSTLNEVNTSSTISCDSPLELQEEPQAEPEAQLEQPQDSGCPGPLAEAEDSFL
UniProt P09619, sequence (P09619 33-1106): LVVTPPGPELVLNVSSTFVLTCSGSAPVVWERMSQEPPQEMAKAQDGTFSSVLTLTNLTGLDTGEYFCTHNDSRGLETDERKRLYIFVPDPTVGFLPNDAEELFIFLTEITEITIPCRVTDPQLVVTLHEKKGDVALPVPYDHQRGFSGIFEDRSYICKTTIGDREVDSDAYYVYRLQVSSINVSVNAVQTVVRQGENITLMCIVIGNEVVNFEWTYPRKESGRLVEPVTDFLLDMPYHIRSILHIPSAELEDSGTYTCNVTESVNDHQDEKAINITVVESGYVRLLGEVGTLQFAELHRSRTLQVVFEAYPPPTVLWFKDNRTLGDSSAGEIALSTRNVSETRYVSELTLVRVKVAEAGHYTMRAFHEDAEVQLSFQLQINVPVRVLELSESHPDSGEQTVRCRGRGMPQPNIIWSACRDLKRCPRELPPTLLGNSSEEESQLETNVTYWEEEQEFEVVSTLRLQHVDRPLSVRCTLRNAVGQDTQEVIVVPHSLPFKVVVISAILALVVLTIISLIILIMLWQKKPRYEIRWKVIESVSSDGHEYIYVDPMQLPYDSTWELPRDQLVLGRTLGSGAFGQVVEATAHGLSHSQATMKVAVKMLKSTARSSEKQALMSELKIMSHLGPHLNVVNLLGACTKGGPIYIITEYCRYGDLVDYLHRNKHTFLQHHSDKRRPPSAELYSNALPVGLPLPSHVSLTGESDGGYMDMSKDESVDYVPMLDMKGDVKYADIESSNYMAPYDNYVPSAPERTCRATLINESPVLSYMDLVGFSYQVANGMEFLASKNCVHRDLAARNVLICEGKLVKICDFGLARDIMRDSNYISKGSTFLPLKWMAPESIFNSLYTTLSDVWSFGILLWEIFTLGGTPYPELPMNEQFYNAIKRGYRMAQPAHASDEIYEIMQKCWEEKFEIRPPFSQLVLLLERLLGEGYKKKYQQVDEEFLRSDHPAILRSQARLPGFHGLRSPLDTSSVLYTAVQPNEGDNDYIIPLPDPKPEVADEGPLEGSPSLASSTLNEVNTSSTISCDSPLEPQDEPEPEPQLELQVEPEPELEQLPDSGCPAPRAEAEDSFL
UniProt P49134, sequence (P49134 21-798): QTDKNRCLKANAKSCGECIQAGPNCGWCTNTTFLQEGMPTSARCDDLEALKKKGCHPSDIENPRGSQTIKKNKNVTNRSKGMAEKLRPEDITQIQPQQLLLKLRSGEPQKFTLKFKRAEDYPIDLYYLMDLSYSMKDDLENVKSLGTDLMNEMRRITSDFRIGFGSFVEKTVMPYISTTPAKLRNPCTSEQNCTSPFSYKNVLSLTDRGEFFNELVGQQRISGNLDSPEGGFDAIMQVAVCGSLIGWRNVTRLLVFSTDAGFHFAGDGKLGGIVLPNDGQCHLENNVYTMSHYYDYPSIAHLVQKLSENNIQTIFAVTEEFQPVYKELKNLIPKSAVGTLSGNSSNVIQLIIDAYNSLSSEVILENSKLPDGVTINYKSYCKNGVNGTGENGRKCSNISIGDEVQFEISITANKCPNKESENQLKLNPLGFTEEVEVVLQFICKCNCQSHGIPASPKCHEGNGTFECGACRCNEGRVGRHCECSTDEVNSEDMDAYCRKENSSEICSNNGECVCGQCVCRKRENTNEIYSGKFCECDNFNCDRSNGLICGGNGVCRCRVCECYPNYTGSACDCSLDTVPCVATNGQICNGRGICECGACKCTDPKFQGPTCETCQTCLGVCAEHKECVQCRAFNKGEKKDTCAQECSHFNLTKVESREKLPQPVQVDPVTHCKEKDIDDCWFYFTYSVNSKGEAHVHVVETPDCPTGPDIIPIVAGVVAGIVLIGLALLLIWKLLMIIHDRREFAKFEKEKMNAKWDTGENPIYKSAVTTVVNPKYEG

Substance: APC Mouse Anti-Human CD29, Cat: 559883 (antibody)
- surface antigen positive rate [1]: 99.4%
- surface antigen positive rate [2]: 99.6%
- surface antigen positive rate [3]: 99.5%
- surface antigen positive rate [4]: 99.6%

Substance: Anti-PDGF Receptor β Human Goat-Poly (R & D Systems Cat. No. AF385) (antibody)
- ATP concentration (cell proliferation with rat PDGF-BB 4 ng/mL, Cell Titer Glo, 6th day of culture), 10 µg/mL PDGFRb-rSMSC [5]: 0.62 µmol/L
- ATP concentration (cell proliferation with rat PDGF-BB 4 ng/mL, Cell Titer Glo, 6th day of culture), 20 µg/mL PDGFRb-rSMSC [5]: 0.65 µmol/L
- ATP concentration (cell proliferation with rat PDGF-BB 4 ng/mL, Cell Titer Glo, 6th day of culture), 40 µg/mL PDGFRb-rSMSC [5]: 0.24 µmol/L
- ATP concentration (cell proliferation, Cell Titer Glo, 6th day of culture), 40 µg/mL PDGFRb-rSMSC [5]: 3.78 µmol/L
- ATP concentration (cell proliferation, Cell Titer Glo, 6th day of culture), 120 µg/mL PDGFRb-rSMSC [5]: 4.12 µmol/L
- Expression rate (percent positive cells) [6]: 76.9%
- surface antigen positive rate [7]: 92.2%
- Expression rate (percent positive cells) [8]: 63.3%
- surface antigen positive rate [9]: 95.2%
- Expression rate (percent positive cells) [10]: 91.6%
- Expression rate (percent positive cells) [11]: 32.8%
- surface antigen positive rate [12]: 85.9%
- surface antigen positive rate [13]: 90.7%

Substance: PE anti-mouse/rat integrin β1 Antibody (Biolegend Cat. No. 102207)
- Expression rate (percent positive cells) [14]: 98.7%
- Expression rate (percent positive cells) [15]: 97.8%
- Expression rate (percent positive cells) [16]: 99.7%
- Expression rate (percent positive cells) [17]: 97.8%
- Expression rate (percent positive cells) [18]: 62.1%
- Expression rate (percent positive cells) [19]: 96.1%
- Expression rate (percent positive cells) [20]: 56.1%
